According to US9500651B2, “Method for identifying novel minor histocompatibility antigens” (UNIVERSITÉ DE MONTRÉAL, priority 2012, dated 2016):

These sequences were tested against T1, HLA-A*0301 (Homo sapiens, UniProt P04439) (assay: MHC class I-associated peptides eluted from B-LCLs by mild acid treatment and identified by LC-MS/MS with personalized database). Details: EBV-transformed B-LCLs of 2 HLA-identical siblings.
T1 construct: endogenous in cells; host or cells: EBV-transformed B lymphoblastoid cell lines (B-LCLs) from PBMCs of 2 HLA-identical siblings
Assay type: cell-based
Description: (§1) Peripheral blood mononuclear cells (PBMCs) were isolated from blood samples of 2 HLA-identical siblings. Epstein-Barr virus (EBV)-transformed B lymphoblastoid cell lines (B-LCLs) were derived from PBMCs with Ficoll-Paque™ Plus (Amersham) as described (Tosato and Cohen, 2007). Established B-LCLs were maintained in RPMI 1640 medium supplemented with 10% fetal bovine serum, 25 mM of HEPES, 2 mM L-glutamine and penicillin-streptomycin (all from Invitrogen).
(§2) Three biological replicates of 4×10^8 exponentially growing B-LCLs were prepared from each subject. MHC class I-associated peptides were released by mild acid treatment, pretreated by desalting with an HLB cartridge, filtered with a 3000 Da cut-off column and separated by cation exchange chromatography (SCX) using an off-line 1100 series binary LC system (Agilent Technologies) as previously described (Fortier et al., 2008). Peptides were loaded at 8 uL/min on a homemade strong cation exchange (SCX) column (0.3 mm internal diameter×50 mm length) packed with SCX bulk material (Polysulfoethyl A™, PolyLC). Peptides were separated into five fractions using a linear gradient of 0-25% B in 25 min (solvent A: 5 mM ammonium formate, 15% acetonitrile, ACN, pH 3.0; solvent B: 2 M ammonium formate, 15% ACN, pH 3.0) and brought to dryness using a Speedvac.
(§3) MHC class I-associated peptide fractions were resuspended in 2% aqueous ACN (0.2% formic acid) and analyzed by LC-MS/MS using an Eksigent™ LC system coupled to a LTQ-Orbitrap™ mass spectrometer (Thermo Electron) (Fortier et al., 2008; de Verteuil et al., 2010; Caron et al., 2011). Peptides were separated in a custom C18 reversed phase column (150 μm i.d.×100 mm, Jupiter Proteo™ 4 μm, Phenomenex) at a flow rate of 600 nL/min using a linear gradient of 3-60% aqueous ACN (0.2% formic acid) in 69 mins. Full mass spectra were acquired with the Orbitrap™ analyzer operated at a resolving power of 60 000 (at m/z 400) and collision-activated dissociation tandem mass spectra were acquired in data-dependent mode with the linear ion trap analyzer. Mass calibration used an internal lock mass (protonated (Si(CH3)2O))6; m/z 445.120029) and mass accuracy of peptide measurements was within 5 ppm.
(§4) Mass spectra were analyzed using Xcalibur™ software and peak lists were generated using Mascot™ distiller version 2.1.1 (Matrix Science, http://www.matrixscience.com). Database searches were performed against a non-redundant human Uniprot database (containing 110,361 sequences, released on 28, Jul. 2011) (version 101 of the UniProt Gene Ontology Annotation available from the European Bioinformatics Institute (EBI), an academic research institute located on the Wellcome Trust Genome Campus in Hinxton near Cambridge (UK), part of the European Molecular Biology Laboratory; http://www.ebi.ac.uk/Informationt; Magrane et al., Database Vol. 2011, Article ID bar009; The UniProt Consortium, Nucleic Acids Res. 2011 January; 39(Database issue): D214-D219) and databases specific for each individual (see “in silico translated transcriptome” section) using Mascot (version 2.3, Matrix Science). A Mascot search against a concatenated target/decoy database consisting of combined forward and reverse versions of the Ensembl human reference genome database and of each subject-specific database. Non-redundant peptide sequences with a cutoff score threshold above 15 were selected. The tolerances for precursor and fragment mass values were set to 0.02 and 0.05 Dalton, respectively. Searches were performed without enzyme specificity and a variable modification for oxidation (Met) and deamidation (Asn, Gln). Raw data files were converted to peptide maps comprising m/z values, charge state, retention time and intensity for all detected ions above a threshold of 8000 counts using in-house software (Proteoprofile) (Fortier et al., 2008; de Verteuil et al., 2010; Caron et al., 2011). […]

Presentation at the cell surface by MHC class I allele, presented at the cell surface:
AMYDKGPFWSK (listed as Homo sapiens) [MiHA peptide from NQO1, rs1131341, tryptophan allele]
VMGNPGTFK (listed as Homo sapiens) [MiHA peptide from RMDN1, rs6980476, lysine allele]
TVLKPGNSK (listed as Homo sapiens) [MiHA peptide from ELF1, rs1056820, threonine allele]
AMYDKGPFRSK (listed as Homo sapiens) [MiHA peptide from NQO1, rs1131341, arginine allele]
RVSLPTSPR (listed as Homo sapiens) [MiHA peptide from KIAA0226L, rs1408184, arginine allele]
SVLKPGNSK (listed as Homo sapiens) [MiHA peptide from ELF1, rs1056820, serine allele]
RVSLPTSPG (listed as Homo sapiens) [MiHA peptide from KIAA0226L, rs1408184, glycine allele]
VMGNPGTFN (listed as Homo sapiens) [MiHA peptide from RMDN1, rs6980476, asparagine allele]

These sequences were tested against HLA-B*0801 (Homo sapiens, UniProt P01889, A93T/A95T/D138N/E176V/E187T/K202T/Q94N/R180D/S35A/V36M/Y33D/Y91F) in the same assay as above. Details: EBV-transformed B-LCLs of 2 HLA-identical siblings.
Assay type: cell-based
Description: as §1, §2, §3, §4

Presentation at the cell surface by MHC class I allele, presented at the cell surface:
ELQEKFLSL (listed as Homo sapiens) [MiHA peptide from CENPF, rs3795517, leucine allele]
SLFFRKVPF (listed as Homo sapiens) [MiHA peptide from MTCH2, rs1064608, proline allele]
SLFFRKVAF (listed as Homo sapiens) [MiHA peptide from MTCH2, rs1064608, alanine allele]
ELQEKFSSL (listed as Homo sapiens) [MiHA peptide from CENPF, rs3795517, serine allele]

Each sequence was assayed against HLA-B*4403 (Homo sapiens, UniProt P01889, A223V/A65T/A93T/A95T/D201E/D98Y/E176V/E187L/E204Q/E69K/G107R/H137Y/K202T/L105A/L119I/N104T/N87E/Q56L/Q94N/R106L/R155S/R180L/S101N/S121R/S35A/S48T/T118I/V36M/W191S/Y140D/Y91S) in the same assay as above. Details: EBV-transformed B-LCLs of 2 HLA-identical siblings.
Assay type: cell-based
Description: as §1, §2, §3, §4

Presentation at the cell surface by MHC class I allele, presented at the cell surface:
QELDGVFQKL (listed as Homo sapiens) [MiHA peptide from ZWINT, rs2241666, glycine allele]
QELDRVFQKL (listed as Homo sapiens) [MiHA peptide from ZWINT, rs2241666, arginine allele]
